Like-named read-outs stand apart in the source and are kept apart here. Values belong to the binder of their own block, whether it stands above or below them. Non-standard residues stand in square brackets, D forms with d. No end group written: not given here. Abu = CC[C@H](N)C(=O)O
Key:
HLA-A*1101 (human) [1] = assay: inhibition of radiolabeled probe peptide binding to purified HLA, gel filtration; conditions: remark: other sources report otherwise
HLA-A*0206 (Human) [2] = assay: competition vs 125I probe, purified HLA; conditions: remark: other sources report otherwise
HLA-A*1101 (human) [3] = assay: competition with 125I probe peptide, purified HLA class I; conditions: remark: other sources report otherwise
HLA-A*6801 (human) [4] = assay: as above; conditions: remark: other sources report otherwise
HLA-A*0301 (human) [5] = assay: as above; conditions: remark: other sources report otherwise
HLA-A*3101 (human) [6] = assay: as above; conditions: remark: other sources report otherwise
HLA-A*0301 (Human) [7] = conditions: remark: other sources report otherwise
HLA-A*6801 (Human) [8] = conditions: remark: other sources report otherwise
HLA-A*0301 (Human) [9] = conditions: remark: other sources report otherwise; remark: listed apart in the source
HLA-A*1101 (Human) [10] = conditions: remark: other sources report otherwise
HLA-A*3101 (Human) [11] = conditions: remark: other sources report otherwise
HLA-A*3301 (Human) [12] = conditions: remark: other sources report otherwise
HLA-A*0301 (Human) [13] = conditions: remark: other sources report otherwise; remark: listed apart in the source
HLA-A*2401 (human) = assay: competition with 125I probe peptide, purified HLA class I
HLA-A*0203 (Human) [14] = assay: competition vs 125I probe, purified HLA; conditions: remark: other sources report otherwise
HLA-A*0206 (human) [15] = assay: competition with 125I probe peptide, purified HLA class I; conditions: remark: other sources report otherwise
HLA-A*0203 (human) [16] = assay: as above; conditions: remark: other sources report otherwise
HLA-A*6802 (human) = assay: as above; conditions: remark: other sources report otherwise
HLA-A*3301 (human) [17] = assay: as above; conditions: remark: other sources report otherwise

- binding affinity ratio to standard peptide (HLA-A*1101 (human) [1]): 1.4
Binder: SSCMGGMNR

- binding affinity ratio to standard peptide (HLA-A*1101 (human) [1]): 0.086
Binder: SSCMGGMNRR

- IC50 (HLA-A*0206 (Human) [2]): 841 nM
Binder: RMPEAAPPVA [p53.65 … (10-mer)]

- IC50 (HLA-A*1101 (human) [3]): 12.8 nM
- IC50 (HLA-A*6801 (human) [4]): 500 nM
B1: 1371.16 BVYSPALNK p53.124.B1V2 (peptide)
peptide: BVYSPALNK
modifications: here or on the partner: B at position 1 is alpha-amino butyric acid (in place of cysteine)

- IC50 (HLA-A*1101 (human) [3]): 17.1 nM
- IC50 (HLA-A*0301 (human) [5]): 12.5 nM
- IC50 (HLA-A*3101 (human) [6]): 9000 nM
- IC50 (HLA-A*6801 (human) [4]): 29.6 nM
Binder: SV[Abu]MGGMNK [1371.24 SVBMGGMNK p53.240.V2B3K9]

- binding affinity ratio to standard peptide (HLA-A*1101 (human) [1]): 0.0019
Binder: TSSSPQPK [p53 peptide TSSSPQPK (position 312)]

- IC50 (HLA-A*1101 (human) [3]): 75 nM
- IC50 (HLA-A*6801 (human) [4]): 17 nM
Binder: SV[Abu]MGGMNRK [1371.25 SVBMGGMNRK p53.240.V2B3K10]

- binding affinity ratio (IC50 of standard peptide/IC50 of test peptide) (HLA-A*0301 (Human) [7]): 0.0056
Binder: TCTYSPALNK [p53 peptide … (position 123, 10 amino acids)]

- binding affinity ratio (IC50 of standard peptide/IC50 of test peptide) (HLA-A*6801 (Human) [8]): 0.003
- binding affinity ratio (IC50 of standard peptide/IC50 of test peptide) (HLA-A*0301 (Human) [9]): 1.5
- binding affinity ratio (IC50 of standard peptide/IC50 of test peptide) (HLA-A*1101 (Human) [10]): 0.73
- binding affinity ratio (IC50 of standard peptide/IC50 of test peptide) (HLA-A*3101 (Human) [11]): 3.7
- binding affinity ratio (IC50 of standard peptide/IC50 of test peptide) (HLA-A*3301 (Human) [12]): 0.0063
Binder: RVRAMAIYK [p53 peptide … (position 156, 9 amino acids)]

- binding affinity ratio (IC50 of standard peptide/IC50 of test peptide) (HLA-A*0301 (Human) [13]): 0.0014
- binding affinity ratio to standard peptide (HLA-A*1101 (human) [1]): 0.0002
Binder: KGQSTSRHK [p53 peptide … (position 373)]

- binding affinity ratio to standard peptide (HLA-A*1101 (human) [1]): 0.12
Binder: VTCTYSPALNK [p53 peptide … (position 122)]

- binding affinity ratio (IC50 of standard peptide/IC50 of test peptide) (HLA-A*0301 (Human) [13]): 1.5
- binding affinity ratio to standard peptide (HLA-A*1101 (human) [1]): 0.73
Binder: RVRAMAIYK [p53 peptide … (position 156)]

- binding affinity ratio (IC50 of standard peptide/IC50 of test peptide) (HLA-A*0301 (Human) [7]): 0.0001
- binding affinity ratio (IC50 of standard peptide/IC50 of test peptide) (HLA-A*0301 (Human) [9]): 0.0001
- binding affinity ratio (IC50 of standard peptide/IC50 of test peptide) (HLA-A*1101 (Human) [10]): 0.086
Binder: SSCMGGMNRR [p53 peptide … (position 240, 10 amino acids)]

- binding affinity ratio to standard peptide (HLA-A*1101 (human) [1]): 0.26
Binder: YGFRLGFLH [p53 peptide … (position 107)]

- binding affinity ratio to standard peptide (HLA-A*1101 (human) [1]): 0.0052
Binder: TSRHKKLMFK [p53 peptide … (position 377)]

- binding affinity ratio to standard peptide (HLA-A*1101 (human) [1]): 0.012
Binder: TCTYSPALNK [p53 peptide … (position 123)]

- binding affinity ratio (IC50 of standard peptide/IC50 of test peptide) (HLA-A*0301 (Human) [13]): 0.0001
- binding affinity ratio to standard peptide (HLA-A*1101 (human) [1]): 0.0002
Binder: LGFLHSGTAK [p53 peptide … (position 111)]

- binding affinity ratio (IC50 of standard peptide/IC50 of test peptide) (HLA-A*0301 (Human) [13]): 3.3
Binder: RTEEENLRKK

- binding affinity ratio (IC50 of standard peptide/IC50 of test peptide) (HLA-A*0301 (Human) [13]): 0.0014
- binding affinity ratio to standard peptide (HLA-A*1101 (human) [1]): 0.0001
Binder: GFLHSGTAK [p53 peptide … (position 112)]

- binding affinity ratio (IC50 of standard peptide/IC50 of test peptide) (HLA-A*0301 (Human) [7]): 0.02
- binding affinity ratio (IC50 of standard peptide/IC50 of test peptide) (HLA-A*0301 (Human) [9]): 0.02
- binding affinity ratio (IC50 of standard peptide/IC50 of test peptide) (HLA-A*1101 (Human) [10]): 1.4
Binder: SSCMGGMNR [p53 peptide … (position 240, 9 amino acids)]

- binding affinity ratio (IC50 of standard peptide/IC50 of test peptide) (HLA-A*1101 (Human) [10]): 0.0019
Binder: TSSSPQPK [p53 peptide TSSSPQPK (position 312, 8 amino acids)]

- IC50 (HLA-A*2401 (human)): 30 nM
Binder: TYQGSYGFRF [57.0096 … p53.102.F10]

- binding affinity ratio (IC50 of standard peptide/IC50 of test peptide) (HLA-A*6801 (Human) [8]): 0.0001
- binding affinity ratio (IC50 of standard peptide/IC50 of test peptide) (HLA-A*0301 (Human) [9]): 0.0015
- binding affinity ratio (IC50 of standard peptide/IC50 of test peptide) (HLA-A*1101 (Human) [10]): 0.091
- binding affinity ratio (IC50 of standard peptide/IC50 of test peptide) (HLA-A*3101 (Human) [11]): 0.0002
- binding affinity ratio (IC50 of standard peptide/IC50 of test peptide) (HLA-A*3301 (Human) [12]): 0.0006
Binder: RTEEENLRK [p53 peptide … (position 283, 9 amino acids)]

- IC50 (HLA-A*0203 (Human) [14]): 9.1 nM
- IC50 (HLA-A*0206 (Human) [2]): 37 nM
Binder: KMF[Abu]QLAKV [p53.132B4V9 KMFBQLAKV]

- IC50 (HLA-A*0206 (human) [15]): 92.5 nM
- IC50 (HLA-A*0203 (human) [16]): 19.6 nM
Binder: KMFCQLAKT [… p53.132]

- binding affinity ratio (IC50 of standard peptide/IC50 of test peptide) (HLA-A*0301 (Human) [13]): 0.0015
- binding affinity ratio to standard peptide (HLA-A*1101 (human) [1]): 0.091
Binder: RTEEENLRK

- IC50 (HLA-A*6802 (human)): 80000 nM
Binder: FLHSGTAKSV [1329.09 … p53.113]

- IC50 (HLA-A*3301 (human) [17]): 10000 nM
Binder: KVYQGSYGFR [1371.14 … p53.101.V2]

- binding affinity ratio (IC50 of standard peptide/IC50 of test peptide) (HLA-A*0301 (Human) [7]): 0.07
- binding affinity ratio (IC50 of standard peptide/IC50 of test peptide) (HLA-A*6801 (Human) [8]): 0.0068
- binding affinity ratio (IC50 of standard peptide/IC50 of test peptide) (HLA-A*0301 (Human) [9]): 0.07
- binding affinity ratio (IC50 of standard peptide/IC50 of test peptide) (HLA-A*1101 (Human) [10]): 0.12
Binder: VTCTYSPALNK [p53 peptide … (position 122, 11 amino acids)]

- binding affinity ratio (IC50 of standard peptide/IC50 of test peptide) (HLA-A*0301 (Human) [9]): 3.3
- binding affinity ratio (IC50 of standard peptide/IC50 of test peptide) (HLA-A*1101 (Human) [10]): 0.008
Binder: RTEEENLRKK [p53 peptide … (position 283, 10 amino acids)]

- binding affinity ratio (IC50 of standard peptide/IC50 of test peptide) (HLA-A*0301 (Human) [7]): 0.05
- binding affinity ratio (IC50 of standard peptide/IC50 of test peptide) (HLA-A*0301 (Human) [9]): 0.05
- binding affinity ratio (IC50 of standard peptide/IC50 of test peptide) (HLA-A*1101 (Human) [10]): 0.0052
Binder: TSRHKKLMFK [p53 peptide … (position 377, 10 amino acids)]
